# Data: paper PMC13544220, “Glycemic and bodyweight effects of GIPR coding variation reflect differences in surface expression and intrinsic functional impairment” (Science Advances, 2026)
# B1: WT (protein, UniProt P48546 22-466, looked up)
# Gastric inhibitory …: RAETGSKGQTAGELYQRWERYRRECQETLAAAEPPSGLACNGSFDMYVCWDYAAPNATARASCPWYLPWHHHVAAGFVLRQCGSDGQWGLWRDHTQCENPEKNEAFLDQRLILERLQVMYTVGYSLSLATLLLALLILSLFRRLHCTRNYIHINLFTSFMLRAAAILSRDRLLPRPGPYLGDQALALWNQALAACRTAQIVTQYCVGANYTWLLVEGVYLHSLLVLVGGSEEGHFRYYLLLGWGAPALFVIPWVIVRYLYENTQCWERNEVKAIWWIIRTPILMTILINFLIFIRILGILLSKLRTRQMRCRDYRLRLARSTLTLVPLLGVHEVVFAPVTEEQARGALRFAKLGFEIFLSSFQGFLVSVLYCFINKEVQSEIRRGWHHCRLRRSLGEEQRQLPERAFRALPSGSGPGEVPTSRGLSSGTLPGPGNEASRELESYC
# Legend:
# [1] = test system: wild-type and variant SNAP-GIPR in Gipr-/- mouse islets; experiment: Glucagon secretion from Gipr-/- mouse islets transduced with GIPR adenoviruses; type: cell-based; details: Gipr-/- islets, 0.5 mM glucose; each variant vs wild type
# Description: (§1) Isolated islets used for insulin secretion assays were treated in 1.5-ml microcentrifuge tubes. Eight-ten islets were used per well with two-three technical replicates per condition. […] At the end of the treatment, supernatants containing the secreted insulin or glucagon were collected, centrifuged at 1000g for 5 min, and transferred to fresh tubes. […] The lysates were sonicated 3× for 10 s in a water bath and centrifuged at 10,000g for 10 min, and the supernatants were collected. The samples were stored at −20°C until the insulin or glucagon concentrations were determined using an Insulin Ultra-Sensitive HTRF Assay kit (62IN2PEG, Revvity) or an HTRF Glucagon Detection Kit (62CGLPEG, Revvity) respectively, according to the manufacturer’s instructions. GraphPad Prism 9.0 was used for the generation of the standard curve and sample concentration extrapolation. The total insulin or glucagon content was calculated by adding the secreted insulin to the insulin content of the lysates, and secretion was reported as the percentage release of total. The percent secretion of islets treated with agonist was normalized to that of islets treated with vehicle and reported as a fold change.
# [2] = test system: wild-type and variant SNAP-GIPR in wild-type mouse islets; experiment: Insulin secretion from wild-type mouse islets transduced with GIPR adenoviruses; type: cell-based; details: 11 mM glucose, particularly E354Q and R190Q, not significant
# Description: as §1, with “The samples were stored at −20°C until the insulin or glucagon concentrations were determined using an Insulin Ultra-Sensitive HTRF Assay kit (62IN2PEG, Revvity) or an HTRF Glucagon Detection Kit (62CGLPEG, Revvity) respectively, according to the manufacturer’s instructions.” left out
# [3] = test system: wild-type and variant SNAP-GIPR in Gipr-/- mouse islets; experiment: Surface SNAP-GIPR expression in pancreatic islets; type: cell-based, human; details: Fig 6B
# Description: Islets were purified from Gipr^−/− mice as described in the “Islet isolation and culture” section. Islets were transduced with adenoviral wild-type or variant SNAP-tagged GIPR constructs (VectorBuilder) per the manufacturer’s instructions. All variants were tested in parallel on each occasion to control for transduction efficiency. Twenty-four hours posttransduction, whole, intact islets were labeled with SNAP-Surface Alexa Fluor 647 for 15 min at 37°C. Following labeling, the islets were placed in a drop of PBS in the center of a glass-bottom MatTek dish and imaged on a Zeiss LSM 780 inverted confocal microscope fitted with a 63X/1.4 NA oil immersion objective. Receptor surface levels were quantified in Fiji using a macro using full width at half maximum (FWHM) designed by the Facility for Imaging and Light Microscopy (FILM) at Imperial College London and expressed relative to wild-type GIPR. In additional experiments, islets transduced as above and labeled with SNAP-Surface-647 were fixed in 4% paraformaldehyde, permeabilized in 0.5% (v/v) Triton X-100 in PBS (15 min), washed once with PBS and incubated in blocking buffer (PBS and 1% BSA) for 1 hour, and incubated overnight at 4°C in primary antibodies against insulin (1:50; Dako IR002, Agilent Technologies) and glucagon (1:500; G2654, Sigma-Aldrich) in blocking buffer.
# [4] = test system: wild-type and variant SNAP-GIPR; experiment: Surface SNAP-GIPR expression (SNAP-tag labelling) in INS-1 cells; type: cell-based, human; details: Fig 4G; Mean
# How it was run: (§2)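 Read-out: whole-cell fluorescence of surface-only SNAP label (Alexa Fluor 647, 500 nM, 10 min, RT), wide-field 20X, several FOVs per well. Flat-field corrected, phase-contrast masked, nontransfected-well signal subtracted; normalized to experiment mean or wild-type.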
# [5] = test system: wild-type and variant SNAP-GIPR; experiment: Single-concentration GIP cAMP response by HTRF in INS-1 cells; type: cell-based, human; details: Fig S3E, mean
# Description: All variants were tested in parallel on each occasion to control for transfection efficiency differences between experiments.
# [6] = test system: wild-type and variant SNAP-GIPR; experiment: Surface SNAP-GIPR expression (SNAP-tag labelling) in AD293 cells; type: cell-based, human; details: for AD293 Surface: Fig S3E, mean; for Surface SNAP-GIPR expression: sheet Fig 1C;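 as to all read-outs here: scaled to the experimental average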
# How it was run: as §2
molecule,measurement,setting,value
"CC[C@H](C)[C@H](NC(=O)[C@H](CO)NC(=O)[C@H](Cc1ccc(O)cc1)NC(=O)[C@H](CC(=O)O)NC(=O)[C@H](CO)NC(=O)[C@@H](NC(=O)[C@H](Cc1ccccc1)NC(=O)[C@@H](NC(=O)CNC(=O)[C@H](CCC(=O)O)NC(=O)[C@H](C)NC(=O)[C@@H](N)Cc1ccc(O)cc1)[C@@H](C)O)[C@@H](C)CC)C(=O)N[C@@H](C)C(=O)N[C@@H](CCSC)C(=O)N[C@@H](CC(=O)O)C(=O)N[C@@H](CCCCN)C(=O)N[C@H](C(=O)N[C@@H](Cc1c[nH]cn1)C(=O)N[C@@H](CCC(N)=O)C(=O)N[C@@H](CCC(N)=O)C(=O)N[C@@H](CC(=O)O)C(=O)N[C@@H](Cc1ccccc1)C(=O)N[C@H](C(=O)N[C@@H](CC(N)=O)C(=O)N[C@@H](Cc1c[nH]c2ccccc12)C(=O)N[C@@H](CC(C)C)C(=O)N[C@@H](CC(C)C)C(=O)N[C@@H](C)C(=O)N[C@@H](CCC(N)=O)C(=O)N[C@@H](CCCCN)C(=O)NCC(=O)N[C@@H](CCCCN)C(=O)N[C@@H](CCCCN)C(=O)N[C@@H](CC(N)=O)C(=O)N[C@@H](CC(=O)O)C(=O)N[C@@H](Cc1c[nH]c2ccccc12)C(=O)N[C@@H](CCCCN)C(=O)N[C@@H](Cc1c[nH]cn1)C(=O)N[C@@H](CC(N)=O)C(=O)N[C@H](C(=O)N[C@H](C(=O)N[C@@H](CCC(N)=O)C(=O)O)[C@@H](C)O)[C@@H](C)CC)C(C)C)[C@@H](C)CC [GIP, glucose-dependent insulinotropic polypeptide, reference compound]",glucagon release,[1],apparent but nonstatistically significant reduction in glucagon release
same,GIP-induced insulin secretion,[2],tendency toward reduced responses to GIP stimulation
B1,Surface SNAP-GIPR expression in pancreatic islets,[3]; replicate 1,1.958
same,Surface SNAP-GIPR expression in pancreatic islets,[3]; replicate 2,2.33
same,Surface SNAP-GIPR expression in pancreatic islets,[3]; replicate 3,2.173
same,Surface SNAP-GIPR expression in pancreatic islets,[3]; replicate 4,3.278
same,Surface SNAP-GIPR expression in pancreatic islets,[3]; replicate 5,3.132
same,Surface expression,[4],1.4278
same,INS-1 cAMP (100 nM),[5],1.606
same,AD293 Surface,"[6]; column repeated, paired with cAMP 100 nM",1.574
same,AD293 Surface,[6]; paired with cAMP 100 pM,1.574
same,Surface SNAP-GIPR expression,[6]; replicate 1,1.413
same,Surface SNAP-GIPR expression,[6]; replicate 2,1.272
same,Surface SNAP-GIPR expression,[6]; replicate 3,1.88
same,Surface SNAP-GIPR expression,[6]; replicate 4,1.444
same,Surface SNAP-GIPR expression,[6]; replicate 5,1.509
same,Surface SNAP-GIPR expression,[6]; replicate 6,1.344
same,Surface SNAP-GIPR expression,[6]; replicate 7,1.891
same,Surface SNAP-GIPR expression,[6]; replicate 8,1.028
same,Surface SNAP-GIPR expression,[6]; replicate 9,1.591
same,Surface SNAP-GIPR expression,[6]; replicate 10,1.397
same,Surface SNAP-GIPR expression,[6]; replicate 11,1.544
same,Surface SNAP-GIPR expression,[6]; replicate 12,1.527
same,Surface SNAP-GIPR expression,[6]; replicate 13,1.575
same,Surface SNAP-GIPR expression,[6]; replicate 14,1.588
same,Surface SNAP-GIPR expression,[6]; replicate 15,1.562
same,Surface SNAP-GIPR expression,[6]; replicate 16,1.285
same,Surface SNAP-GIPR expression,[6]; replicate 17,1.371
same,Surface SNAP-GIPR expression,[6]; replicate 18,1.43
same,Surface SNAP-GIPR expression,[6]; replicate 19,1.701
same,Surface SNAP-GIPR expression,[6]; replicate 20,1.486
same,Surface SNAP-GIPR expression,[6]; replicate 21,1.598
same,Surface SNAP-GIPR expression,[6]; replicate 22,1.477
same,Surface SNAP-GIPR expression,[6]; replicate 23,1.449
same,Surface SNAP-GIPR expression,[6]; replicate 24,1.623
same,Surface SNAP-GIPR expression,[6]; replicate 25,1.241
same,Surface SNAP-GIPR expression,[6]; replicate 26,1.004
same,Surface SNAP-GIPR expression,[6]; replicate 27,2.237
same,Surface SNAP-GIPR expression,[6]; replicate 28,2.105
same,Surface SNAP-GIPR expression,[6]; replicate 29,1.748
same,Surface SNAP-GIPR expression,[6]; replicate 30,1.831
same,Surface SNAP-GIPR expression,[6]; replicate 31,1.807
same,Surface SNAP-GIPR expression,[6]; replicate 32,1.314
same,Surface SNAP-GIPR expression,[6]; replicate 33,1.406
same,Surface SNAP-GIPR expression,[6]; replicate 34,1.597
same,Surface SNAP-GIPR expression,[6]; replicate 35,1.369
same,Surface SNAP-GIPR expression,[6]; replicate 36,1.658
same,Surface SNAP-GIPR expression,[6]; replicate 37,2.437
same,Surface SNAP-GIPR expression,[6]; replicate 38,2.543
same,Surface SNAP-GIPR expression,[6]; replicate 39,1.55
same,Surface SNAP-GIPR expression,[6]; replicate 40,1.34
same,Surface SNAP-GIPR expression,[6]; replicate 41,1.346
